Results as given in PMC4333418, “Transcriptional regulator-mediated activation of adaptation genes triggers CRISPR de novo spacer acquisition”.

How the values were obtained:
[1] = target: T1, Csa3a (Sulfolobus islandicus REY15A) (UniProt F0NH46); assay: EMSA; conditions: EMSA: 20 mM Tris-HCl pH 8.0, 50 mM KCl, 5% glycerol, 1 mM EDTA, 1 mM DTT, 5 ng/ul poly(dI-dC), 10 pmol probe in 20 ul, 40 C 20 min; footprinting: 10 mM …
T1 sequence: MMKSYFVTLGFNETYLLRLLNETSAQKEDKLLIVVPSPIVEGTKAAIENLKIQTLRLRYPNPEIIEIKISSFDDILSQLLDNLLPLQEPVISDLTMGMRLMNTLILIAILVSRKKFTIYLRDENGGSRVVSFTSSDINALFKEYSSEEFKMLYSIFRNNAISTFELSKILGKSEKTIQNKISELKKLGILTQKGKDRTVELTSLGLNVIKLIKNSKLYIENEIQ

Csa3a [2] = target: T2, Csa3a (Sulfolobus islandicus REY15A, UniProt F0NH46 1-224); assay: EMSA; Csa3a 2.4-6 pmol/ul; EMSA: 20 mM Tris-HCl pH 8.0, 50 mM KCl, 5% glycerol, 1 mM EDTA, 1 mM DTT, 5 ng/ul poly(dI-dC), 10 pmol probe in 20 ul, 40 C 20 min; footprinting: 10 mM Tris-HCl pH 7.4, 10 mM MgCl2, 1 mM CaCl2, 0.4 mM DTT, 100 mM KCl, 5% glycerol, 40 C 20 min; conditions: protein: recombinant; chain copies: 2; label: 5' biotin (one strand); blunt
T2 sequence: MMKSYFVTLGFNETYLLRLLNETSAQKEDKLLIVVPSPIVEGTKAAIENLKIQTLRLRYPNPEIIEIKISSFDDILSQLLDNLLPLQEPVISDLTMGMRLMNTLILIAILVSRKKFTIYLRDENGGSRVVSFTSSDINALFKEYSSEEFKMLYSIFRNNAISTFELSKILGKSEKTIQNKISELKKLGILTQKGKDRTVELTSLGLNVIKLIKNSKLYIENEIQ

Csa3a [3] = target: T2, Csa3a; assay: EMSA; Csa3a 1.6 pmol/ul; EMSA: 20 mM Tris-HCl pH 8.0, 50 mM KCl, 5% glycerol, 1 mM EDTA, 1 mM DTT, 5 ng/ul poly(dI-dC), 10 pmol probe in 20 ul, 40 C 20 min; footprinting: 10 mM Tris-HCl pH 7.4, 10 mM MgCl2, 1 mM CaCl2, 0.4 mM DTT, 100 mM KCl, 5% glycerol, 40 C 20 min; conditions: protein: recombinant; chain copies: 2; label: 5' biotin (one strand); blunt
Csa3a [4] = target: T2, Csa3a; assay: EMSA; Csa3a 0.4-1.6 pmol/ul; EMSA: 20 mM Tris-HCl pH 8.0, 50 mM KCl, 5% glycerol, 1 mM EDTA, 1 mM DTT, 5 ng/ul poly(dI-dC), 10 pmol probe in 20 ul, 40 C 20 min; footprinting: 10 mM Tris-HCl pH 7.4, 10 mM MgCl2, 1 mM CaCl2, 0.4 mM DTT, 100 mM KCl, 5% glycerol, 40 C 20 min; conditions: protein: recombinant; chain copies: 2; label: 5' biotin

With “GCAAAAAGAATCTAAAATACACAATAATGATCCTTGTAAATTTCTTCCCGACTTTAGTAAGGATAATCTTAATAAACGACGATTTTCCTCTTGATGAAGAATAATGGAAAATATAGGGAAAGTGTTCTCCCGTATACGATCCTTGTTTTCCTTTTTCCTTGTTTCGTTTTGGGTTAGGTTGTTATCCTAAATTCATTATCTT (double strand) [csa1 promoter P1 (-205 to -4)]” the binding [1] was “binds”.

With “TATATTTTCCATTATTCTTCATCAAGAGGAAAATCGTCGTTTATTAAGATTATCCTTACTAAAGTCGGGAAGAAATTTACAAGGATCATTATTGTGTATTTTAGATTCTTTTTGC (double strand) [csa1 promoter P2 (-118 to -4)]” the binding [1] was “binds”.

B1: cas1 P2 (-35 to -10) (dsDNA)
DNA 1: TTAAGACCTTAATAATATCGGAATAT
DNA 2: ATATTCCGATATTATTAAGGTCTTAA
B1: no binding (Csa3a [2]).

B2: csa1 promoter P3 (-42 to -4) (dsDNA)
DNA 1: TTACAAGGATCATTATTGTGTATTTTAGATTCTTTTTGC
DNA 2: GCAAAAAGAATCTAAAATACACAATAATGATCCTTGTAA
B2: no binding (Csa3a [3]).

B3: csa1 25-bp minimal region (dsDNA)
DNA 1: ATCCTTACTAAAGTCGGGAAGAAATT
DNA 2: AATTTCTTCCCGACTTTAGTAAGGAT
B3: binds (Csa3a [4]).
